This assay deals with taxb1_human TAX1BP1 (UniProt Q86VP1).

The results in this text go back to IntAct's records for PubMed 18239685.

On to “Polyubiquitin-C (Homo sapiens) (from UniProt P0CG48) I44A”, for which the “effect of a mutation on the interaction” value was “decreasing interaction”.
